Data reported in patent US20260116960A1 (SHANGHAI HONGCHENG BIOPHARMACEUTICAL, published 2026).

Columns and labels:
[1] = target: T1, human PD-1 on the cell surface (human, UniProt Q15116 25-288); assay: flow cytometry on activated human T cells (CD3+), PE anti-human IgG Fc
T1 construct: whole, on cells; also called cell surface PD-1
Experimental: Human peripheral blood mononuclear cells (PBMCs, Miaoshun (Shanghai) Biotechnology Co., Ltd., Catalog No.: A19K154025) were rapidly thawed in a 37° C. water bath, resuspended in T cell isolating solution, and counted. After centrifugation at 400 g for 10 minutes, the supernatant was removed and the cells were resuspended to 5×10⁷ cells/mL with T cell separation buffer. T cells were isolated according to the procedure of a T cell isolation kit (Stemcell, Catalog No.: 19051), and the obtained T cells were resuspended in culture medium. The cells were counted using NucleoCounter NC-200 and the T cell density was adjusted to approximately 1×10⁶ cells/mL. Dynabeads containing anti-CD3 and anti-CD28 antibodies (Invitrogen™, Catalog No.: 11132D) and 10 ng/ml hIL-2 (Peprotech, Catalog No.: 200-02) were added and cultured in a 37° C., 5% CO₂ incubator for 3 days. After removing Dynabeads and supernatant, the activated T cells were resuspended in FACS buffer. The cell density was adjusted to about 1×10⁶ cells/mL, and 100 μL of cell solution was added into a 96-well U-bottom plate, 1×10⁵ cells/well. After centrifugation at 500 g for 5 minutes, the supernatant was discarded and 100 μL of the trispecific antibody solution of the present application serially diluted 3-fold with FACS buffer was added in triplicate, with a starting concentration of 200 nM. After mixing, incubated at 4° C. for 60 minutes. After centrifugation and washing three times with FACS buffer, 100 μL/well of PE anti-human IgG Fc (Biolegend, Catalog No.: 366903) was added and incubated at 4° C. for 50 minutes. After washing the plate three times with FACS buffer, 100 μL/well of BV421 anti-human CD3 antibody (OKT3) (Biolegend, Catalog No.: 317344) was added and incubated at 4° C. for 50 minutes. After washing the plate three times with FACS buffer, 70 μL/well of PBS solution was added to resuspend the cells, and the fluorescent signal on CD3 T cells was detected on a flow cytometer (BD Cellesta). The binding activity was fitted using a four-parameter model, and the EC₅₀ value of each antibody binding to T cells was calculated.

[2] = target: T2, human CTLA-4 protein (Acro, Catalog No. CT4-H52H9) (human, UniProt P16410 36-161); assay: BLI (Octet RED96e), antibody on AHC sensor, antigen as analyte 6.25-100 nM, 1:1 model
T2 construct: Bought protein
T2 sequence (P16410 36-161 limits assumed): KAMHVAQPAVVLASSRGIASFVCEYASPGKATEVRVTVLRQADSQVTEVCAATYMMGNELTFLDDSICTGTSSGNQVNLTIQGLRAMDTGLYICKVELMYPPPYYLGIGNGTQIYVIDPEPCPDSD
Experimental: (§1) Octet® RED96e (ForteBio) was used to detect the affinity of trispecific antibodies to human PD-1, CTLA-4 and VEGFA. The specific method was as follows: the AHC Sensor was immersed in PBST (PBS containing 0.02% Tween) buffer for 10 minutes to activate the Sensor. The ligand (antibody to be tested) was diluted to 5 μg/mL with PBST buffer. […] The diluted ligand and analyte were added to the corresponding wells at 200 μL/well in triplicate. Program parameter settings: loading: 180 s, association: 180 s, dissociation: 600 s, regeneration: Gly-HCl pH 1.5, 30s, regeneration 3 times. […] Curve fit acceptance criteria: Full R\hat{ }2≥0.95.

[3] = target: T2, human CTLA-4 protein (Acro, Catalog No. …); assay: ELISA, plate coated with human CTLA-4 protein
[4] = target: T3, human CTLA-4 on the cell surface (human, UniProt P16410 36-223); assay: flow cytometry, CHO-hCTLA-4 cells, batch FACS#3
T3 construct: whole, on cells; also called CHO-hCTLA-4 cells; CHOK1-hCTLA4 cells
T3 sequence (P16410 36-223): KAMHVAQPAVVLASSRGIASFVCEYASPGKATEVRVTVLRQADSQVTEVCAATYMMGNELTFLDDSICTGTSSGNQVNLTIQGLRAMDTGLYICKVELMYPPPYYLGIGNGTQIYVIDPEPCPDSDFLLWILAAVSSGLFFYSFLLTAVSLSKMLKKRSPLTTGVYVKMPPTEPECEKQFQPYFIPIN

[5] = target: T3, human CTLA-4 on the cell surface; assay: flow cytometry, CHO-hCTLA-4 cells, batch FACS#4
[6] = target: T1, human PD-1 on the cell surface; assay: blocking of PD-L1 binding to cell surface PD-1, comparison with pembrolizumab; comparison run with pembrolizumab, cell surface PD-1
[7] = target: T1, human PD-1 on the cell surface; assay: flow cytometry, 293T-hPD-1 cells, batch FACS#2
Experimental: (§2) After centrifugation at 300 g for 5 minutes, the supernatant was discarded. The antibodies were serially diluted 3-fold with FACS buffer to obtain two gradient series solution FACS #1 and FACS #2, with the starting concentration of 200 nM (Table 5, FACS #1) or 100 nM (Table 5, FACS #2, FIG. 2), respectively. Then 100 μL/well was added to a 96-well plate in triplicate, mixed, and incubated at 4° C. for 60 min. The plate was centrifuged and washed three times with FACS buffer. 100 μL/well of 1:800 diluted AF647-anti-hIgG(H+L) (Jackson, Catalog No.: 109-605-003) was added and incubated at 4° C. for 50 minutes. After washing the plate three times with FACS buffer, 100 μL/well of FACS buffer was added to resuspend the cells, and the fluorescence signal was detected on a flow cytometer (BECKMAN COULTER cytoFLEX). The binding activity was fitted using a four-parameter model to calculate the EC₅₀ value of each antibody binding to PD-1.

[8] = target: T1, human PD-1 on the cell surface; assay: flow cytometry, 293T-hPD-1 cells, comparison with pembrolizumab
Experimental: as §2

[9] = target: T4, human PD-1 protein (Acro, Catalog No. PD1-H5221) (human, UniProt Q15116 25-167); assay: BLI (Octet RED96e), antibody on AHC sensor, antigen as analyte 6.25-100 nM, 1:1 model
T4 construct: Bought protein; also called human PD1-his; not shown: his tag
T4 sequence (Q15116 25-167 limits assumed): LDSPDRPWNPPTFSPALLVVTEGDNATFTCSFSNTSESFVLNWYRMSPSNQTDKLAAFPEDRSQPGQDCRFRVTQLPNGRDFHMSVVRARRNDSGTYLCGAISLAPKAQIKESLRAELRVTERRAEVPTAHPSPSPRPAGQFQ
Experimental: as §1

[10] = target: T1, human PD-1 on the cell surface; assay: flow cytometry, 293T-hPD-1 cells, batch FACS#1
Experimental: as §2

[11] = target: human PD-1 protein (Acro, PD1-H5257) (human, UniProt Q15116 25-167); assay: competitive ELISA, PD-1 coated, biotin-PD-L1 as labelled ligand
human PD-1 protein (Acro, PD1-H5257), sequence (Q15116 25-167 limits assumed): as above
Experimental: The next day, the plate was washed three times with PBS solution and blocked with 1% BSA-PBS solution at 37° C. for 1 hour. […] 100 μL of the antibody-protein mixture was added to each well of the blocked 96-well ELISA plate and incubated at 37° C. for 1 hour. After washing four times with PBST, 100 μL of Strep-HRP (BD, Catalog No. 554066) diluted 1:5000 was added to each well of the ELISA plate and incubated at 37° C. for 1 hour. After washing 4 times with PBST, TMB was used for color development. The absorbance at 450 nm and 630 nm was detected by a microplate reader, and OD450-OD630 was calculated. The fluorescence intensity was fitted using a four-parameter model, and the IC₅₀ value of the blocking activity of each antibody was calculated.

[12] = target: T4, human PD-1 protein (Acro, Catalog No. …); assay: ELISA, plate coated with human PD-1 protein
Experimental: ELISA was used to determine the activity of the trispecific antibodies binding to the PD-1 protein: 1 μg/mL human PD-1 protein (Acro, Catalog No.: PD1-H5221) was used to coat a high-adsorption 96-well ELISA plate and incubated at 4° C. overnight. On the next day, the plate was washed three times with PBST solution and blocked with 1% BSA-PBS solution at 37° C. for 1 hour. At the same time, 3-fold gradient dilutions of the antibody were prepared with 1% BSA-PBS solution, with a starting concentration of 10 nM. The antibodies of each gradient concentration were added to the blocked 96-well ELISA plate at 100 µL/well in triplicate and incubated at 37° C. for 1 hour. The plate was then washed three times with 0.05% PBST solution, and 100 μL/well of HRP-labeled secondary antibody (Sigma, Catalog No.: A0170) diluted at 1:5000 was added to the ELISA plate and incubated at 37° C. for 1 hour. The plate was washed three times with 0.05% PBST solution and developed with TMB. The absorbance of the 96-well ELISA plate at 450 nm was detected by an ELISA reader. The OD₄₅₀ value was fitted using a four-parameter model to calculate the EC₅₀ value of each antibody binding to PD-1.

[13] = target: T1, human PD-1 on the cell surface; assay: flow cytometry competition, 293T-hPD-1 cells, biotin-human PD-L1
Experimental: 50 μL of antibody solution serially diluted 3-fold in FACS buffer was added in triplicate, with a starting concentration of 200 nM. After mixing, incubated at 4° C. for 60 minutes. After washing three times with FACS buffer, 100 μL/well of 1:800 diluted PE Streptavidin was added and incubated at 4° C. for 50 min. After washing three times with FACS buffer, 150 μL/well of PBS was added to resuspend the cells, and the fluorescence signal was detected on a flow cytometer (BECKMAN COULTER cytoFLEX). The four-parameter model was used to fit the binding activity and the IC₅₀ value of the blocking activity of each antibody was calculated.

T1 sequence (Q15116 25-288): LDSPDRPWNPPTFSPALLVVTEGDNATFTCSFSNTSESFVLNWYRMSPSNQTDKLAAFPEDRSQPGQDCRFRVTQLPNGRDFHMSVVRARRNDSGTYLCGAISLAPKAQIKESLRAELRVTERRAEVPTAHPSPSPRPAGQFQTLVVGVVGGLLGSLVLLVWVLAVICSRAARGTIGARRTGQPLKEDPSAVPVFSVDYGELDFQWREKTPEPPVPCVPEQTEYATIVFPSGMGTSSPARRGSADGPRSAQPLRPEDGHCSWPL

B1: sintilimab (antibody, V domains shown)
VH: QVQLVQSGAEVKKPGSSVKVSCKASGGTFSSYAISWVRQAPGQGLEWMGLIIPMFDTAGYAQKFQGRVAITVDESTSTAYMELSSLRSEDTAVYYCARAEHSSTGTFDYWGQGTLVTVSS
VL: DIQMTQSPSSVSASVGDRVTITCRASQGISSWLAWYQQKPGKAPKLLISAASSLQSGVPSRFSGSGSGTDFTLTISSLQPEDFATYYCQQANHLPFTFGGGTKVEIK
Work on B1 yielded an EC50 [1] of 0.231 nM.

B2: 202F1 (VHH)
VHH: EVQLLESGGGLVQPGGSLRLSCAASGSIFSINHMAWYRQAPGKQRELVAGVNSRGTTNYVDSVKGRFTISRDNSKNTLYLQMNSLRAEDTAVYYCRALGGAVAAWGQGTLVTVSS
notes: also called anti-CTLA-4 nanobody (202F1)
B2 was tested, and the Kd [2] was 0.203 nM.

B3: 202F1-hIgG1 (antibody, V domains shown)
VH: EVQLLESGGGLVQPGGSLRLSCAASGSIFSINHMAWYRQAPGKQRELVAGVNSRGTTNYVDSVKGRFTISRDNSKNTLYLQMNSLRAEDTAVYYCRALGGAVAAWGQGTLVTVSS
notes: also called anti-CTLA-4 nanobody 202F1 with hIgG1 constant region
Work on B3 yielded an EC50 [3] of 0.078 nM, an EC50 [4] of 1.71 nM and an EC50 [5] of 1.05 nM.

B4: camrelizumab (antibody, V domains shown)
VH: EVQLVESGGGLVQPGGSLRLSCAASGFTFSSYMMSWVRQAPGKGLEWVATISGGGANTYYPDSVKGRFTISRDNAKNSLYLQMNSLRAEDTAVYYCARQLYYFDYWGQGTTVTVSS
VL: DIQMTQSPSSLSASVGDRVTITCLASQTIGTWLTWYQQKPGKAPKLLIYTATSLADGVPSRFSGSGSGTDFTLTISSLQPEDFATYYCQQVYSIPWTFGGGTKVEIK
B4 showed an EC50 [1] of 0.473 nM.

B5: CQ1-3/1-11-hIgG4 antibody (antibody, V domains shown)
VH: EVQLVESGGGLVQPGGSLRLSCAASGFTFSSYGMSWVRQAPGKGLEWVSTISGGGRDTYYPDSVKGRFTISRDNSKNTLYLQMNSLRAEDTAVYYCARQNGITWFADWGQGTLVTVSS
VL: DIQMTQSPSSLSASVGDRVTITCRASESVDNYGISFMNWYQQKPGKAPKLLIYAASNQGSGVPSRFSGSGSGTDFTLTISSLQPEDFATYYCQQSKEVPWTFGGGTKVEIKR
notes: also called anti-PD-1 antibody CQ1-3/1-11
With B5 the IC50 [6] was 3.19 nM, the EC50 [7] was 1.12 nM and the EC50 [8] was 4.34 nM. For the same binder, the Kd [9] was 1.96 nM, the EC50 [10] was 2.8 nM and the IC50 [11] was 0.731 nM. It also gave an EC50 [12] of 0.041 nM, an EC50 [1] of 0.244 nM and an IC50 [13] of 4 nM.
